Measured values as given in article PMC6791878, “Evaluation of integrin αvβ6 cystine knot PET tracers to detect cancer and idiopathic pulmonary fibrosis” (Nature Communications, 2019).
Several values for one entry are separate records, joined by “and”; a condition that tells them apart may be missing. Equal entries are not always repeated. Where two headings read alike, the source gives them in different places. Where a SMILES comes first, the peptide text is derived from it. Bridges are numbered along the chain shown (N, C = ends). The star is where a group is joined. DOTA = O=C(O)CN1CCN(CC(=O)O)CCN(CC(=O)*)CCN(CC(=O)O)CC1

How the values were obtained:
[1] = system: pancreatic cancer; test: [18F]FP-R01-MG-F2 vs [18F]FDG PET/CT in a pancreatic cancer patient (Stanford); conditions: FDG, 1 hr
Method: The line was flushed with at least 10 ml normal saline after injection. • Blood samples for blood time activity measurements were taken at 1, 3, 5, and 10 min after tracer administration and then at 30-minute intervals for up to 3 h after tracer injection. The counts in whole blood and plasma were measured by gamma counter (Perkin Elmer Wizard 1470). […] The scan was performed over the abdominal region to include the pancreas. Attenuation correction was employed via CT (120 kV, 10 mA). […] The scan was performed over the chest region. Attenuation correction was employed via CT (120 kV, 10 mA). • Static total-body (vertex-to-toe) PET/CT scans were acquired at 60 min and 120 min post injection. CT was performed at 120 kV; it was dose-modulated based on body habitus with current ranging from 10-105 mA for the 60-minute scan. […] EKG data was analyzed to assess changes in overall rhythm of the heart. • On the day of the study, participants were asked to void frequently to reduce radiation exposure. Urine samples were collected at prior to tracer administration (baseline), prior to the static PE scans, at the end of the study day 1, and at the follow up visits 1 day and 7 days after tracer administration.
Upon co-registration of the PET and CT images, the CT images were used to determine regions of interest for the organs or tissues reported in the manuscript. These ROIs were applied to the PET images of the brain, pituitary gland, breast, lower and upper large intestine, small intestine, stomach, pancreas, heart wall, liver, lung, muscle, red marrow, bone, skin, and thyroid gland. For high uptake organs such as the kidneys, bladder and for the whole body, threshold-based segmentation of PET images were used to determine a close-fitting ROI around the entire organ or whole body. In order to determine accuracy, these PET-derived ROIs were compared to the CT overlay for a close match.

[2] = biological target: T1, human integrin αvβ6 (Homo sapiens, UniProt P06756+P18564, DEL708-788); test: Competition binding (IC50) against yeast surface-displayed R01-MG; conditions: compete with R01-MG displayed on yeast
T1 construct: purchased R&D Systems
T1 sequence (P06756 31-992 limits assumed, stated change not applied): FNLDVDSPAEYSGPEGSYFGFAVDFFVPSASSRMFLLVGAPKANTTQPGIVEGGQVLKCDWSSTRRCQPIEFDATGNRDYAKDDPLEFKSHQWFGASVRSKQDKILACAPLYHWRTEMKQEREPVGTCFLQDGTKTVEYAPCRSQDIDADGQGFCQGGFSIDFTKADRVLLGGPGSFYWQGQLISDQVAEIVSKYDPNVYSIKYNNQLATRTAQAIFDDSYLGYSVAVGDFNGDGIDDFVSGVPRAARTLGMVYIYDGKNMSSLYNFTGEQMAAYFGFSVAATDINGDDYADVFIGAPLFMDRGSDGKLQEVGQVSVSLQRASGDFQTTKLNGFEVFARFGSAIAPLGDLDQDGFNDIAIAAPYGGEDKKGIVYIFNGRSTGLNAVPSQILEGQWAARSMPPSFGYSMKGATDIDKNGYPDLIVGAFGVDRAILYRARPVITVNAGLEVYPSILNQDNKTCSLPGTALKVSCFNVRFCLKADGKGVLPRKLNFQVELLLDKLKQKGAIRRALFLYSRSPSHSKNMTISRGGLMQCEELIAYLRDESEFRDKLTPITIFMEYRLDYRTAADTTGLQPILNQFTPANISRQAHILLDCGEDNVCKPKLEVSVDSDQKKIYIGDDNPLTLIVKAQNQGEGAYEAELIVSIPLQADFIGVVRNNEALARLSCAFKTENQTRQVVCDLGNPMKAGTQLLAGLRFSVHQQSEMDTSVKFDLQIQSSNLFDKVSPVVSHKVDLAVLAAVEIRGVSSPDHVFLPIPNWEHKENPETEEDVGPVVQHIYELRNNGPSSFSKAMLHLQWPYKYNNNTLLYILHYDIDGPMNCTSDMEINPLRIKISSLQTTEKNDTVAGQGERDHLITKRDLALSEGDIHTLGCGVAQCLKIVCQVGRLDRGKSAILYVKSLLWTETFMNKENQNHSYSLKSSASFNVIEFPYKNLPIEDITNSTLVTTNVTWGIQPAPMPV
T1 sequence (P18564 22-707 limits assumed, stated change not applied): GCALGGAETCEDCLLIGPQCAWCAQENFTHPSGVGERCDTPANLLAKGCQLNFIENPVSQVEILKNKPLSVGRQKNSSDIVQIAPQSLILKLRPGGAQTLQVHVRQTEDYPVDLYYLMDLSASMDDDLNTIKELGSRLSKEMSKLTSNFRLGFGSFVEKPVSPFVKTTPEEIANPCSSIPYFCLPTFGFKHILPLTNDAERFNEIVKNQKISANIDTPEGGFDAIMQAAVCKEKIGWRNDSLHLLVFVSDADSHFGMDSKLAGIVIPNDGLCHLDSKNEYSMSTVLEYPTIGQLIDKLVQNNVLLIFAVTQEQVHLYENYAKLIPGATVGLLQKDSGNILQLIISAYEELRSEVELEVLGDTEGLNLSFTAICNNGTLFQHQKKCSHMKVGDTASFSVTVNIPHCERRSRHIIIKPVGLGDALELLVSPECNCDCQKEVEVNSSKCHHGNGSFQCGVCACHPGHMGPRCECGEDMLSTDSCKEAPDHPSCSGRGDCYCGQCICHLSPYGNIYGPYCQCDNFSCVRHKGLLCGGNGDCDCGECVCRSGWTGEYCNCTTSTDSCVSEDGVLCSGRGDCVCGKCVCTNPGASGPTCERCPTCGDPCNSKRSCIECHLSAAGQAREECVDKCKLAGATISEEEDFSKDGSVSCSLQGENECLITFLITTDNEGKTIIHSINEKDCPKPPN

[3] = system: αvβ6 expressing BxPC3 pancreatic cancer xenografts; conditions: for Tumor: αvβ6 (+)
Method: (§1) Female athymic nude mice, 4–6 weeks old (Charles River), were subcutaneously shoulder-injected with 10^7 cells suspended in 100 µL PBS. Mice were used for imaging and biodistribution studies when xenografted tumors grew to a diameter of ~1 cm.
(§2) Tumor-bearing Nu/Nu female mice (n = 3 for each probe) were anesthetized using 2% isoflurane in oxygen and injected with ~100 µCi (~0.15 nmol) of the tracers described above via the tail vein. Five-minute static PET scans were acquired on an Inveon PET-CT or Inveon D-PET scanner (Siemens Healthcare, Malvern PA). Images were reconstructed by a two-dimensional ordered expectation maximum subset algorithm and calibrated as described below. ROIs were drawn over the tumor on decay-corrected whole-body images using Inveon Research Workplace (IRW) software (Siemens) or ASIPro VM software (Siemens). ROIs were converted to counts g^−1 min^−1, and %ID g^−1 values were determined assuming a tissue density of 1 g ml^−1.
(§3) Scanner activity calibration was performed to map between PET image units and units of radioactivity concentration. A preweighed 50-mL centrifuge tube was filled with distilled water and ^64CuCl2 (∼9.3 MBq [∼250 μCi] as determined by the dose calibrator) was used to simulate the whole body of the mouse. This tube was weighed, centered in the scanner aperture, and imaged for a 30-min static image, single bed position. From the sample weight and assuming a density of 1 g ml^−1, the activity concentration in the bottle was calculated in units of μCi mL^−1. Eight planes were acquired in the coronal section. A rectangular region of interest (ROI) (counts/pixel/s) was drawn on the middle of eight coronal planes.

[4] = in vivo; conditions: female, athymic nude (Nu/Nu), mouse, iv, total radioactivity; for tissue uptake at 2 h: microPET 2 hr; for tissue uptake at 4 h: microPET 4 hr; for tissue uptake at 24 h: microPET 24 hr; for tissue to tissue ratio at 1 h: tumor / muscle, 100 uCi
Method: as §1, §2, §3

[5] = PET, 1 h p.i., average ± SD, n = 3
[6] = microPET 4 hr, individual mice, listed as R01-MG DOTA Cu-64
[7] = kidney, PET, 1 h p.i., average ± SD, n = 3
[8] = kidney, microPET 1 hr, individual mice
[9] = liver, microPET 1 hr, individual mice
[10] = muscle, PET, 1 h p.i., average ± SD, n = 3
[11] = muscle, microPET 1 hr, individual mice
[12] = tumor (BxPC3 xenograft), Tumor avb6(+), microPET 1 hr, individual mice, one line per mouse
[13] = tumor (BxPC3 xenograft), Tumor avb6(+), individual mice
[14] = tumor (BxPC3 xenograft, αvβ6 positive), Tumor, PET, 1 h p.i., αvβ6 (+), average ± SD, n = 3
[15] = microPET 1 hr, individual mice, listed as Ro1-MR DOTA Cu-64
[16] = microPET 4 hr, individual mice, listed as R01-MR DOTA Cu-64
[17] = microPET 24 hr, individual mice, listed as R01-MR DOTA Cu-64
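Throughout, for Tumor avb6(+): shoulder subcutaneous xenografts near 1 cm, tracer given via tail vein, 5-min static PET, ROI activity on decay-corrected images converted to %ID/g with tissue density taken as 1 g/mL.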
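Throughout, for Tumor: shoulder subcutaneous xenografts near 1 cm, tracer given via tail vein, 5-min static PET, ROI activity on decay-corrected images converted to %ID/g with tissue density taken as 1 g/mL.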
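Throughout, for kidney: shoulder subcutaneous xenografts near 1 cm, tracer given via tail vein, 5-min static PET, ROI activity on decay-corrected images converted to %ID/g with tissue density taken as 1 g/mL.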
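Throughout, for liver: shoulder subcutaneous xenografts near 1 cm, tracer given via tail vein, 5-min static PET, ROI activity on decay-corrected images converted to %ID/g with tissue density taken as 1 g/mL.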

Compound: OC[C@H]1O[C@@H](O)[C@H]([18F])[C@@H](O)[C@@H]1O [FDG]
- Bl, PET uptake [1]: 21.1
- Bn, PET uptake [1]: 1.4
- Br, PET uptake [1]: 8.1
- Brs, PET uptake [1]: 0.32
- CA, PET uptake [1]: 4.1
- HW, PET uptake [1]: 2
- LLI, PET uptake [1]: 2.2
- Ln, PET uptake [1]: 0.59
- Lv, PET uptake [1]: 2.9
- Ms, PET uptake [1]: 0.53
- RM, PET uptake [1]: 0.29
- SI, PET uptake [1]: 2.5
- Sk, PET uptake [1]: 0.38
- Sp, PET uptake [1]: 2.9
- St, PET uptake [1]: 0.16
- Tr, PET uptake [1]: 0.9
- ULI, PET uptake [1]: 1.8
- WB, PET uptake [1]: 0.79

Compound: CC[C@H](C)[C@@H]1NC(=O)[C@@H](NC(=O)CNC(=O)C(C)F)CSSC[C@@H]2NC(=O)[C@H](C)NC(=O)CNC(=O)[C@@H]3CCCN3C(=O)[C@@H]3CSSC[C@@H](C(=O)NCC(N)=O)NC(=O)[C@H](Cc4ccc(O)cc4)NC(=O)CNC(=O)[C@H](CC(N)=O)NC(=O)CNC(=O)[C@H](CCCNC(=N)N)NC(=O)[C@H](CSSC[C@H](NC(=O)[C@H](CCCNC(=N)N)NC(=O)[C@H](Cc4ccccc4)NC(=O)[C@H](CC(C)C)NC(=O)[C@H](CC(C)C)NC(=O)[C@H]([C@@H](C)O)NC(=O)CNC(=O)[C@H](CC(C)C)NC(=O)[C@H](CC(=O)O)NC(=O)[C@H]([C@@H](C)O)NC(=O)[C@H](CCCNC(=N)N)NC(=O)CNC(=O)[C@H](CC(N)=O)NC(=O)[C@H](CC(C)C)NC1=O)C(=O)N[C@@H](CCCNC(=N)N)C(=O)N[C@@H](CCCNC(=N)N)C(=O)N[C@@H](CC(=O)O)C(=O)N[C@@H](CO)C(=O)N[C@@H](CC(=O)O)C(=O)N3)NC(=O)[C@H]([C@@H](C)CC)NC2=O (stereo partly shown) [[^19F]FP-R01-MG-F1]
- binding affinity for integrin avb6 in competition binding (IC50), in words [2]: subnanomolar

Compound: CC[C@H](C)[C@@H]1NC(=O)[C@@H](NC(=O)CNC(=O)CN2CCN(CC(=O)O)CCN(CC(=O)O)CCN(CC(=O)O)CC2)CSSC[C@@H]2NC(=O)[C@H](C)NC(=O)CNC(=O)[C@@H]3CCCN3C(=O)[C@@H]3CSSC[C@@H](C(=O)NCC(N)=O)NC(=O)[C@H](Cc4ccc(O)cc4)NC(=O)CNC(=O)[C@H](CC(N)=O)NC(=O)CNC(=O)[C@H](CCCNC(=N)N)NC(=O)[C@H](CSSC[C@H](NC(=O)[C@H](CCCNC(=N)N)NC(=O)[C@H](Cc4ccccc4)NC(=O)[C@H](CC(C)C)NC(=O)[C@H](CC(C)C)NC(=O)[C@H]([C@@H](C)O)NC(=O)CNC(=O)[C@H](CC(C)C)NC(=O)[C@H](CC(=O)O)NC(=O)[C@H]([C@@H](C)O)NC(=O)[C@H](CCCNC(=N)N)NC(=O)CNC(=O)[C@H](CC(N)=O)NC(=O)[C@H](CC(C)C)NC1=O)C(=O)N[C@@H](CCCNC(=N)N)C(=O)N[C@@H](CCCNC(=N)N)C(=O)N[C@@H](CC(=O)O)C(=O)N[C@@H](CO)C(=O)N[C@@H](CC(=O)O)C(=O)N3)NC(=O)[C@H]([C@@H](C)CC)NC2=O [[^64Cu]DOTA-R01-MG, metal not drawn]
- Tumor [3, 5]: ~ 3 %ID g^−1
- Kidney [3, 5]: ~ 30 %ID g^−1
- Liver [3, 5]: 2.14 ± 0.38 % injected dose gram^−1
- Tumor avb6(+) ([3]; microPET 1 hr, individual mice, one line per mouse, listed as Ro1-MG DOTA Cu-64): 2.952 %ID/g
- Muscle ([3]; microPET 1 hr, individual mice, listed as Ro1-MG DOTA Cu-64): 0.4707 %ID/g
- Muscle ([3]; microPET 2 hr, individual mice, listed as R01-MG DOTA Cu-64): 0.4023 %ID/g and 0.398 %ID/g
- Liver [3, 6]: 2.382 %ID/g
- Muscle [3, 6]: 0.3296 %ID/g
- Muscle ([3]; microPET 24 hr, individual mice, listed as R01-MG DOTA Cu-64): 0.3985 %ID/g and 0.3942 %ID/g
- tissue uptake at 1 h [4, 7]: 28.4 ± 2.61 %ID/g
- tissue uptake at 1 h [4, 8]: 25.3 %ID/g
- tissue uptake at 2 h ([4]; kidney, individual mice): 26.9 %ID/g
- tissue uptake at 4 h ([4]; kidney, individual mice): 25.6 %ID/g
- tissue uptake at 24 h ([4]; kidney, individual mice): 10.8 %ID/g
- tissue uptake at 1 h [4, 9]: 1.77 %ID/g
- tissue uptake at 2 h ([4]; liver, individual mice): 2.38 %ID/g
- tissue uptake at 4 h ([4]; liver, individual mice): 2.4 %ID/g
- tissue uptake at 24 h ([4]; liver, individual mice): 3.39 %ID/g
- tissue uptake at 1 h [4, 10]: 0.472 ± 0.003 %ID/g
- tissue uptake at 1 h [4, 11]: 0.471 %ID/g
- tissue uptake at 2 h ([4]; muscle, individual mice): 0.398 %ID/g
- tissue uptake at 4 h ([4]; muscle, individual mice): 0.385 %ID/g
- tissue uptake at 24 h ([4]; muscle, individual mice): 0.394 %ID/g
- tissue uptake at 1 h [4, 12]: 2.93 %ID/g
- tissue uptake at 2 h [4, 13]: 2.27 %ID/g
- tissue uptake at 4 h [4, 13]: 2.22 %ID/g
- tissue uptake at 24 h [4, 13]: 2.52 %ID/g
- tissue uptake at 1 h [4, 14]: 2.74 ± 0.35 %ID/g
- tissue to tissue ratio at 1 h [4]: 5.8 ± 0.72

Compound: CC[C@H](C)[C@@H]1NC(=O)[C@@H](NC(=O)CNC(=O)CN2CCN(CC(=O)O)CCN(CC(=O)O)CCN(CC(=O)O)CC2)CSSC[C@@H]2NC(=O)[C@H](C)NC(=O)CNC(=O)[C@@H]3CCCN3C(=O)[C@@H]3CSSC[C@@H](C(=O)NCC(N)=O)NC(=O)[C@H](Cc4ccc(O)cc4)NC(=O)CNC(=O)[C@H](CC(N)=O)NC(=O)CNC(=O)[C@H](CCCNC(=N)N)NC(=O)[C@H](CSSC[C@H](NC(=O)[C@H](CCCNC(=N)N)NC(=O)[C@H](Cc4ccccc4)NC(=O)[C@H](CC(C)C)NC(=O)[C@H](CC(C)C)NC(=O)[C@H]([C@@H](C)O)NC(=O)CNC(=O)[C@H](CC(C)C)NC(=O)[C@H](CC(=O)O)NC(=O)[C@H]([C@@H](C)O)NC(=O)[C@H](CCCNC(=N)N)NC(=O)[C@H](CCCNC(=N)N)NC(=O)[C@H](CC(N)=O)NC(=O)[C@H](CC(C)C)NC1=O)C(=O)N[C@@H](CCCNC(=N)N)C(=O)N[C@@H](CCCNC(=N)N)C(=O)N[C@@H](CC(=O)O)C(=O)N[C@@H](CO)C(=O)N[C@@H](CC(=O)O)C(=O)N3)NC(=O)[C@H]([C@@H](C)CC)NC2=O [[^64Cu]DOTA-R01-MR, metal not drawn] ({DOTA}-GCILNRRTDLGTLLFRCRRDSDCPGACICRGNGYCG-NH2; disulfide 2-27, 17-29, 23-35)
- kidney uptake relative to the other two candidates ([3]; 1 h p.i.): ~ 3 fold
- Tumor [3, 5]: ~ 3 %ID g^−1
- Kidney [3, 5]: ~ 90 %ID g^−1
- Tumor avb6(+) ([3]; microPET 1 hr, individual mice, one line per mouse, listed as Ro1-MR DOTA Cu-64): 3.249 %ID/g
- Liver [3, 15]: 4.713 %ID/g
- Muscle [3, 15]: 0.5407 %ID/g and 0.5349 %ID/g
- Muscle ([3]; microPET 2 hr, individual mice, listed as R01-MR DOTA Cu-64): 0.5174 %ID/g
- Kidney [3, 16]: 82.8 %ID/g
- Liver [3, 16]: 4.22 %ID/g
- Muscle [3, 16]: 0.4687 %ID/g
- Kidney [3, 17]: 38.15 %ID/g
- Muscle [3, 17]: 0.5142 %ID/g
- Tumor avb6(+) [3, 17]: 3.535 %ID/g
- tissue uptake at 1 h [4, 7]: 90 ± 3.64 %ID/g
- tissue uptake at 1 h [4, 8]: 94 %ID/g
- tissue uptake at 2 h ([4]; kidney, individual mice): 90.5 %ID/g
- tissue uptake at 4 h ([4]; kidney, individual mice): 82.3 %ID/g
- tissue uptake at 24 h ([4]; kidney, individual mice): 37.8 %ID/g
- tissue uptake at 1 h ([4]; liver, PET, 1 h p.i., average ± SD, n = 3): 4.63 ± 0.09 %ID/g
- tissue uptake at 1 h [4, 9]: 4.66 %ID/g
- tissue uptake at 2 h ([4]; liver, individual mice): 3.9 %ID/g
- tissue uptake at 4 h ([4]; liver, individual mice): 3.44 %ID/g
- tissue uptake at 24 h ([4]; liver, individual mice): 6.99 %ID/g
- tissue uptake at 1 h [4, 10]: 0.536 ± 0.004 %ID/g
- tissue uptake at 1 h [4, 11]: 0.533 %ID/g
- tissue uptake at 2 h ([4]; muscle, individual mice): 0.516 %ID/g
- tissue uptake at 4 h ([4]; muscle, individual mice): 0.467 %ID/g
- tissue uptake at 24 h ([4]; muscle, individual mice): 0.513 %ID/g
- tissue uptake at 1 h [4, 12]: 3.27 %ID/g
- tissue uptake at 2 h [4, 13]: 3.46 %ID/g
- tissue uptake at 4 h [4, 13]: 2.55 %ID/g
- tissue uptake at 24 h [4, 13]: 3.2 %ID/g
- tissue uptake at 1 h [4, 14]: 3.45 ± 0.34 %ID/g
- tissue to tissue ratio at 1 h [4]: 6.43 ± 0.58
